Experimental data as given in PMC4899274.

Target: triplex subunit VP23 (HSV-1) (human herpes simplex virus type 1 (HSV-1), strain KOS) (UniProt P10202)
Assay: cryo-EM structure

triplex subunit VP23 (HSV-1) (from UniProt P10202 1-318) (natural protein)
stoichiometry N: 2
